Experimental data taken from US20190352408A1 (US Dept. of Health and Human Services, published 2019).

T1: recombinant soluble FLT3 (human, UniProt P36888 27-541, limits assumed)
T1 construct: For the ELISA it says only 'recombinant soluble FLT3'; also called soluble recombinant FLT3; Fms-like tyrosine kinase 3
T1 sequence (looked up): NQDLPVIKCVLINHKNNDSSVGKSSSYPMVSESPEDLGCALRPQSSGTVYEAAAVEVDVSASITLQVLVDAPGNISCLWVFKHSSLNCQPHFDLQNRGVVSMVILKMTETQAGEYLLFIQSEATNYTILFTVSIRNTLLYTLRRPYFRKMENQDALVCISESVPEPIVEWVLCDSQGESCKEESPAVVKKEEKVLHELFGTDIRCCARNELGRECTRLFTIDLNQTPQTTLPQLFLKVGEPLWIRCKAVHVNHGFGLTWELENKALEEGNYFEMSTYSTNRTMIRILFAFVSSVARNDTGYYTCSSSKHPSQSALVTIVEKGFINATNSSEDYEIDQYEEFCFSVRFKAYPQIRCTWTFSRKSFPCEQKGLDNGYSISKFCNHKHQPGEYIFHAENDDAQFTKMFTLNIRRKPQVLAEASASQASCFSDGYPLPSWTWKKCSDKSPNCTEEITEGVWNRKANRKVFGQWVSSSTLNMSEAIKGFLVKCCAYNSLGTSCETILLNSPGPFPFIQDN

T2: cell-surface FLT3 (UniProt P36888 27-993, limits assumed)
T2 construct: whole, on cells; also called FLT3 on FLT3-positive RS4; 11 cells
T2 sequence (looked up): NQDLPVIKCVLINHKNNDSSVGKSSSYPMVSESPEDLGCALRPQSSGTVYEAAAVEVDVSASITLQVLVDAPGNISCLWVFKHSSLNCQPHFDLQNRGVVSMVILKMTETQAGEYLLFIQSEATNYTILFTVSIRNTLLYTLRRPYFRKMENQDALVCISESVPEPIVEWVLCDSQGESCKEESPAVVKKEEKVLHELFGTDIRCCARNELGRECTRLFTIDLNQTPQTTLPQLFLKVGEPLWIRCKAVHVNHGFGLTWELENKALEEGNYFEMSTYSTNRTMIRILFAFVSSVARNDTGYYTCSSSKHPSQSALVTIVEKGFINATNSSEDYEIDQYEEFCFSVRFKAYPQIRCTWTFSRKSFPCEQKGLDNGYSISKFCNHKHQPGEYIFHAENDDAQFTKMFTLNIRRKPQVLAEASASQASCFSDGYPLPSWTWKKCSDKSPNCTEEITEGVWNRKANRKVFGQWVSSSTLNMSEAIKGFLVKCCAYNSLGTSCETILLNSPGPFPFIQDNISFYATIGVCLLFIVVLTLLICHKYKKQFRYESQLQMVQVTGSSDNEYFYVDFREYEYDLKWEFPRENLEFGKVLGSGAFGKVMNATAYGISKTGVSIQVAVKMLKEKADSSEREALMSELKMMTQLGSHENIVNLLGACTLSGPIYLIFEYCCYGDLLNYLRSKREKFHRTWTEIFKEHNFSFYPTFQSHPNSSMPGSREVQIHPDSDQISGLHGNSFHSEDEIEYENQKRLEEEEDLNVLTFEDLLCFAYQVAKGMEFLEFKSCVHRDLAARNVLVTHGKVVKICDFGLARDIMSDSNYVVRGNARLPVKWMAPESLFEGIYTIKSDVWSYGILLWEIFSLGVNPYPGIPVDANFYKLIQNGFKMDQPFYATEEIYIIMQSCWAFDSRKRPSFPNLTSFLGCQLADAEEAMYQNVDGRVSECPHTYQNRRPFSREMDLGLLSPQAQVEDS


How the values were obtained:
recombinant soluble FLT3 [1] = target: T1, recombinant soluble FLT3; assay: ELISA on recombinant soluble FLT3 (FIG. 1A)
cell-surface FLT3 = target: T2, cell-surface FLT3; assay: flow cytometry on RS4;11 cells, anti-His-PE detection
recombinant soluble FLT3 [2] = target: T1, recombinant soluble FLT3; assay: ELISA on recombinant soluble FLT3 (FIG. 1C)
recombinant soluble FLT3 [3] = target: T1, recombinant soluble FLT3; assay: ELISA on recombinant soluble FLT3 (FIG. 1B)

Binder	binding result (recombinant soluble FLT3 [1])	binding result (cell-surface FLT3)	binding result (recombinant soluble FLT3 [2])	binding result (recombinant soluble FLT3 [3])
m1006 (antibody, V domains shown, Fully human; isolated from a phage display Fab library) VH: EVQLVESGGGLVQPGGSLRLSCAASGFTFSSYGMHWVRQAPGKGLEWVAVISYDGSNKYYADSVKGRFTISRDNSKNTLYLQMNSLRAEDTAVYYCANLAPWAAYWGQGTLVTVSS VL: not shown	binds	binds	–	–
m1007 (antibody, V domains shown, Fully human; isolated from a phage display Fab library) VH: EVQLVESGGGVVQPGGSLRLSCAASGFTFSSYGMHWVRQAPGKGLEWVAVISYDGSNKYYADSVKGRFTISRDNSKNTLYLQMNSLRAEDTAVYYCANLAPWAAYWGQGTLVTVSS VL: not shown	binds	binds	–	–
m1012 (VHH, Human VH single-domain antibody (not camelid) from a phage display VH domain library; Detected with anti-His-PE; also called single-domain antibody m1012) VHH: EVQLVESGGGLVQPGGSLRLSCAASRFYFSGYEMSWVRQAPGKGLEWVSAISGSGGSTYYADSVKGRFTISRDNSKNTLYLQMNSLRAEDTAVYYCARRVVGAKLYFQHWGQGTLVTVSS	–	binds	binds	–
m1008 (scFv, Fully human; isolated from a phage display scFv library; Detected with anti-His-PE) scFv: QVQLQESGPGLVKPSQTLSLTCTVSGGSISSSGYYWSWVRQSPGKGLEWIGEIYQSGNTNYNPSLKSRVTISVDKPKNQLSLKLGSVTAADTAVYYCARGGSYYDYWGQGTLVTVSSGGGGSGGGGSGGGGSQSVVTQPPSVSAAPGQKVTISCSGSNSNIGNNYVSWYQQLPGTAPKVLIYDNNVRPSGIPDRFSGSKSGTSATLGITGLQTGDEADYYCETWDSSLNVGMFGGGTQLIVL	–	binds	–	binds
m1009 (scFv, Fully human; isolated from a phage display scFv library; Detected with anti-His-PE) scFv: EVQLVQSGGGLVQPGGSLRLSCAASGFTFSSYAMSWVRQAPGKGLEWVSGISWNSGSIGYADSVKGRFTISRDNAKNSLYLQMNSLRAEDTALYYCAKVGGGGAFDIWGQGTMVTVSSGGGGSGGGGSGGGGSQSVLTQPPSVSAAPGQKVTISCSGSSSSIGDNYVSWYQQVPGTAPKLLIYGNNKRPSGIPDRLSGSKSGTSATLGITGLQTGDEADYYCGTWDNSLGGVFGGGTKLTVL	–	binds	–	binds
